Measurements taken from patent publication US20100092481A1 (INSTITUTE FOR RESEARCH IN BIOMEDICINE, published 2010).

B1: 7I13 (antibody, V domains shown)
VH: QVQLVESGGGVVQPGRSLRLSCAASGFTFSNYGMHWVRQGPGKGLEWVAVISYDASSKYYTDSVQGRFTISRDNSKNTLFLQMNSLRGEDTAVYYCAKALRYLDWFLSDPFDYWGQGTLVTVSS
VL: EIVLTQSPGTLSLSPGERATLSCRASQSVSSDFLAWYQQKPGQAPRLLIYGASSRATGIPDRFSGSGSGTDFTLTISRLEPEDFAVYYCQQYAASPPFGQGTRLEIK
notes: human IgG mAb
B2: 7B13 (antibody, V domains shown)
VH: QVQLVESGGGVVQPGGSLRLSCAASGFSFSNYGMHWVRQAPGKGLEWVALIPSDGNYQYYTDSVKGRFTVSRDNSRNTLYLQMKSLRAEDTARYHCAHLGGGLFDFWGQGTLVTVSS
VL: QSALNQPRSVSGSPGQSVSISCTGSSSDVGGYEFVSWYQHHPGKAPKLIIYDVDKRPSGVPDRFSGSRSGDTASLTISGLQAEDEADYYCYSSADTWVFGGGTKLTVL
notes: human IgG mAb
B3: 8C15 (antibody, V domains shown)
VH: QVQLQESGPGLVKPSETLSLTCTVSGGSIRSYYWSWIRQPPGKGLEWIGHIYYSGNTNYSPSLQSRVTISLDTPKNQFSLRLSSVTAADTAVYYCARHDVIVVRGVFDVWGQGTVVTVSS
VL: QSALTQPASVSGSPGQSITISCTGTSSDIGTYNLVSWYQQHPGKAPKVLIYDGSKRPSGVSSRFSASKSGNTASLTISGLQAEDETDYYCCSYAGTSDFFVVFGGGTKLTVL
notes: human IgG mAb; also called 8C15-biotin

Experiments:
[1] = molecular target: T1, hCMV gH, gL, UL128, UL130 and UL131A co-expressed in HEK293T cells (human cytomegalovirus, UniProt P12824 24-743; P16832 31-278; P16837 1-171; P16772 1-214); experiment: cell cross-competition, 20x excess; competitor 1F11-biotin
T1 construct: whole, on cells; also called gH + gL + UL128 + UL130 + UL131A; gH/gL/UL128-130 complex

[2] = molecular target: T2, hCMV UL128, UL130 and UL131A co-expressed in HEK293T cells (human cytomegalovirus, UniProt P16837 1-171; P16772 1-214); experiment: cell-based or functional assay
[3] = molecular target: T1, hCMV gH, gL, UL128, UL130 and UL131A …; experiment: cell cross-competition, 20x excess; competitor 6G4-biotin
[4] = molecular target: T1, hCMV gH, gL, UL128, UL130 and UL131A …; experiment: cell cross-competition, 20x excess; competitor 2C12-biotin
[5] = molecular target: T1, hCMV gH, gL, UL128, UL130 and UL131A …; experiment: cell cross-competition, 20x excess; competitor 8C15-biotin
[6] = molecular target: T2, hCMV UL128, UL130 and UL131A …; experiment: cell-based or functional assay; remark: listed apart in the source
[7] = molecular target: T1, hCMV gH, gL, UL128, UL130 and UL131A …; experiment: cell cross-competition, 20x excess; competitor 8J16-biotin
[8] = molecular target: T1, hCMV gH, gL, UL128, UL130 and UL131A …; experiment: cell cross-competition, 20x excess; competitor 9I6-biotin
[9] = molecular target: T1, hCMV gH, gL, UL128, UL130 and UL131A …; experiment: cell cross-competition, 20x excess; competitor 8I21-biotin
[10] = molecular target: T1, hCMV gH, gL, UL128, UL130 and UL131A …; experiment: cell cross-competition, 20x excess; competitor 4I22-biotin

T2 sequence (P16837 whole entry, chain 1 of 2): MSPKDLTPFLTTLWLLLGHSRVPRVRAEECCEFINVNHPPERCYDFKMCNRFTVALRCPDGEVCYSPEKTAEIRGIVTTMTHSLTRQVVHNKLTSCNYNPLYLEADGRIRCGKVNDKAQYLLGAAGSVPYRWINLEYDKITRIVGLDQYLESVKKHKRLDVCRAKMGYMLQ
T2 sequence (P16772 whole entry, chain 2 of 2): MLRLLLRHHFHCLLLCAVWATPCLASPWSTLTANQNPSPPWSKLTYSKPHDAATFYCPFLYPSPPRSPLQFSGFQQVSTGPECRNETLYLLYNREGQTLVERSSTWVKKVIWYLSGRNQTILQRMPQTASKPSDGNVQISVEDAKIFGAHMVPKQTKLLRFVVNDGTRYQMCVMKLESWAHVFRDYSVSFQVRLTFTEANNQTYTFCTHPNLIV

Binder | Inhibition of binding (%) [1] [%] | 90% Neutralization ARPE (hCMV VR1814) [2] [µg/mL] | 90% Neutralization MRC-9 (hCMV VR1814) [2] [µg/mL] | Inhibition of binding (%) [3] [%] | Inhibition of binding (%) [4] [%] | Inhibition of binding (%) [5] [%] | 50% Neutralization ARPE (hCMV VR1814) [6] [µg/mL] | 50% Neutralization MRC-9 (hCMV VR1814) [6] [µg/mL] | Inhibition of binding (%) [7] [%] | Inhibition of binding (%) [8] [%] | Inhibition of binding (%) [9] [%] | Inhibition of binding (%) [10] [%]
B1 | 0 | 0.008 | > 10 | 0 | 0 | 0 | < 0.01 | > 2 | 0 | 0 | 0 | –
B2 | – | 0.003 | > 10 | 100 | 100 | 100 | < 0.001 | > 2 | 100 | 100 | 0 | –
B3 | – | 0.0025 | > 10 | 100 | 100 | 100 | < 0.001 | > 2 | 100 | 100 | 0 | 0
